Experiments:
[1] = molecular target: T1, CD3ε epitope-fused CE115HA146 (CE115HAGP13-rabIgG/GLS3000-rabk); assay: SPR (Biacore T200), ligand captured on protein A, Fab 0-400 nM as analyte, 37 C
T1 construct: stands for the antigen/antibody complex; Rabbit constant regions; also called CE115HAPG13
Experimental: (§1) SuRe protein A (GE Healthcare) prepared at 25 μg/mL using Acetate4.5 (GE Healthcare) was immobilized on sensor chip CM4 at approximately 1000 RU per flow cell using an amine coupling kit (GE Healthcare).
(§2) The sensor chip was regenerated by passing Glycine1.5 and 25 mM NaOH, each at a flow rate of 30 μL/min for 15 seconds. The dissociation constant KD (M) was calculated based on the association rate constant ka (1/Ms) and the dissociation rate constant kd (1/s), which are kinetic parameters calculated from the sensorgram obtained by the measurement. Biacore T200 Evaluation Software (GE Healthcare) was used for calculation of each parameter.

[2] = molecular target: T2, CD3ε epitope-fused CE115HA056 (CE115HAGP12-rabIgG/GLS3000-rabk); assay: as above
T2 construct: rabbit constant regions; also called CE115HAPG12
Experimental: as §1, §2

[3] = molecular target: T3, Biotinylated human CD3εδ heterodimer (Fc-fused human CD3ε / Fc-fused human CD3δ) (human, biotin on the Avi tag (BirA)); assay: BLI (Octet RED384); CD3εδ on streptavidin sensor, IC17 one arm for 120 s, then 1 µM Fab in HBS-EP+ for 120 s
T3 chain 1: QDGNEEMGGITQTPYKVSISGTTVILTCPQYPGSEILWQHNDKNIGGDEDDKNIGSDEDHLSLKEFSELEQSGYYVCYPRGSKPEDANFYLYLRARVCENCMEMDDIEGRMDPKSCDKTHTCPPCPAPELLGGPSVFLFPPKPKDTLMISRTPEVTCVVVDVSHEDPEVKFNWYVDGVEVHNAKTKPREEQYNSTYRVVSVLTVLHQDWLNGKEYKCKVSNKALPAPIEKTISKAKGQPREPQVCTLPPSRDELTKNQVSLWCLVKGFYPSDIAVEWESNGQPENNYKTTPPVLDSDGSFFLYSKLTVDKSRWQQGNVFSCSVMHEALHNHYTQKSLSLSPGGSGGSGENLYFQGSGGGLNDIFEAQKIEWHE
T3 chain 2: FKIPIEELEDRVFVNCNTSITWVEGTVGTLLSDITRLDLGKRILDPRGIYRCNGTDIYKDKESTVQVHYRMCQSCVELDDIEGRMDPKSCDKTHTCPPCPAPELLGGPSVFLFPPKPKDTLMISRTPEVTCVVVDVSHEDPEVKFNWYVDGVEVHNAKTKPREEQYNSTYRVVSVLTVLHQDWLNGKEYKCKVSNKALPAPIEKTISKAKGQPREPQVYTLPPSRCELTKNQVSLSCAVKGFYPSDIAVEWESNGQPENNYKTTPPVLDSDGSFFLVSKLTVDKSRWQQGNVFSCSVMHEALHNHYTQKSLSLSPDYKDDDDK
Experimental: (§3) Using an Octet RED 384 (ForteBio), a streptavidin sensor (ForteBio) was reacted with CD3εδ prepared at 0.2 μM in ACES at 37° C. for 300 seconds. […] Response values were extracted every three seconds, and graphs were depicted using Microsoft Excel 2013 (Microsoft).

[4] = molecular target: CD3 antibody CE115HA146 (CE115HA146-F760mnP17/GLS3000-k0); assay: SPR (Biacore), 37 C; ligand antibody captured on SuRe protein A chip (1000 RU), Fab as analyte at 100 nM for 180 s; amount of binding per 1 RU of ligand
Experimental: as §1
(§4) First, to evaluate the binding specificity of the clamping antibodies, a ligand was reacted at 37° C. for 60 seconds at a flow rate of 10 μL/min to capture 1000 RU, and an analyte prepared at 100 nM was allowed to act for 180 seconds at a flow rate of 30 μL/min, and the amount of binding was measured.

[5] = molecular target: T4, negative control IC17 (IC17Hdk-F760mnP17/IC17L-k0); assay: as above
T4 construct: also called anti-KLH antibody
Experimental: as §1, §4

[6] = molecular target: T5, CD3ε epitope-fused GPC3 antibody (hGC33VHGP01-rabCH1hG1m/hGC33VL-rabk); assay: as above
T5 construct: control for recognition of the peptide alone
Experimental: as §1, §4

[7] = molecular target: CD3 antibody CE115HA000 (CE115HA000-F760mnP17/GLS3000-k0); assay: as above
Experimental: as §1, §4

[8] = molecular target: CD3 antibody CE115HA056 (CE115HA056-F760mnP17/GLS3000-k0); assay: as above
Experimental: as §1, §4

[9] = molecular target: T3, Biotinylated human CD3εδ heterodimer …; assay: BLI (Octet RED384), 37 C; biotinylated CD3εδ on streptavidin sensor, one-arm antibody in solution for 120 s
Experimental: as §3

CD3 antibody CE115HA056 (CE115HA056-F760mnP17/GLS3000-k0), sequence (heavy, as listed by the source): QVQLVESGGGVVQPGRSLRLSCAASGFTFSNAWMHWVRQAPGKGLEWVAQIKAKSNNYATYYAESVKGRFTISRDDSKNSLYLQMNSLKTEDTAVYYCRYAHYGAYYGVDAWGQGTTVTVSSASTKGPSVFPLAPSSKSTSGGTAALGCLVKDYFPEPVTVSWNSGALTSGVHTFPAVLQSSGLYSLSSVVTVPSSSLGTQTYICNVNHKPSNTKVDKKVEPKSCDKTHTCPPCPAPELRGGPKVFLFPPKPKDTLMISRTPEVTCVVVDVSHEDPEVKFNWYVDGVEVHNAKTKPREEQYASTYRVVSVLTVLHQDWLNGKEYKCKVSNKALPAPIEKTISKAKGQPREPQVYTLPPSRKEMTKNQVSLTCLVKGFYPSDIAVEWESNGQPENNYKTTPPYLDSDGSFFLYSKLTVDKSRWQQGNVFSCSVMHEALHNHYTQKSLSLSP
CD3 antibody CE115HA146 (CE115HA146-F760mnP17/GLS3000-k0), sequence (heavy, as listed by the source): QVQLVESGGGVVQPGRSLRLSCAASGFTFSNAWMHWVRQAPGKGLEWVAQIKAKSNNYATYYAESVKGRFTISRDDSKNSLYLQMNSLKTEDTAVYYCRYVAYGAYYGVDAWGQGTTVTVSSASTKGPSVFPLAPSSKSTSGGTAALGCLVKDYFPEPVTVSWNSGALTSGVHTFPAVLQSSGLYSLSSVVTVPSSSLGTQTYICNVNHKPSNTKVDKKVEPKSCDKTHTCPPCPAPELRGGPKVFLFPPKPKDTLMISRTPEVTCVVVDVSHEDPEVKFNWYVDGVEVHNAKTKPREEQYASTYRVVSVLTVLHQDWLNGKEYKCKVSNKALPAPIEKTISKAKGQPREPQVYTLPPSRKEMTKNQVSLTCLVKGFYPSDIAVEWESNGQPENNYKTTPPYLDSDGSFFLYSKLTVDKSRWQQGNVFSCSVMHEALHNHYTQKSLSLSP
CD3 antibody CE115HA000 (CE115HA000-F760mnP17/GLS3000-k0), sequence (VH, as listed by the source, chain 1 of 2): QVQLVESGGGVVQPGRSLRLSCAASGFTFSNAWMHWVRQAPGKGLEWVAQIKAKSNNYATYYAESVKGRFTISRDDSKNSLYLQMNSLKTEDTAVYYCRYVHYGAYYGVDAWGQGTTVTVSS
CD3 antibody CE115HA000 (CE115HA000-F760mnP17/GLS3000-k0), sequence (VL, as listed by the source, chain 2 of 2): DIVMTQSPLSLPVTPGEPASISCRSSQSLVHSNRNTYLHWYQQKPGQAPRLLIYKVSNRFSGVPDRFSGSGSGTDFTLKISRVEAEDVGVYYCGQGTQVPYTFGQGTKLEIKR
T2 sequence (heavy, as listed by the source, chain 1 of 2): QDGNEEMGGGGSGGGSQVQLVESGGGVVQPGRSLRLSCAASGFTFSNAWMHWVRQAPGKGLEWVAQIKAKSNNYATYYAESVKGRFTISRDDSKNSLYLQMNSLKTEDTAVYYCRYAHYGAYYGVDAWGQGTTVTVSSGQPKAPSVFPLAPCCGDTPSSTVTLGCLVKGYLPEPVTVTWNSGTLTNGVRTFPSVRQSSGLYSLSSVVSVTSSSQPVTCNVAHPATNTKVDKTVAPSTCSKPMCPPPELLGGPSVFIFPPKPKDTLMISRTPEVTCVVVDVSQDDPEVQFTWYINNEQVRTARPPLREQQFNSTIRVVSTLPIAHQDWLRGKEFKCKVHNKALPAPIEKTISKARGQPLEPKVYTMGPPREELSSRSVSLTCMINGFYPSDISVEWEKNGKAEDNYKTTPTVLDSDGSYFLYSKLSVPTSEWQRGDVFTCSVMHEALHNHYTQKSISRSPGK
T2 sequence (light, as listed by the source, chain 2 of 2): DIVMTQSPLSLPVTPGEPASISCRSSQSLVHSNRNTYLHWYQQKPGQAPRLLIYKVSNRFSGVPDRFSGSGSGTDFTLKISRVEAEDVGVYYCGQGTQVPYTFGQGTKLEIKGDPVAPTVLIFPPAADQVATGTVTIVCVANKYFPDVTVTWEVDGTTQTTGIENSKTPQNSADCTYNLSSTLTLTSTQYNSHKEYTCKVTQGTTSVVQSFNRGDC
T5 sequence (VH, as listed by the source, chain 1 of 2): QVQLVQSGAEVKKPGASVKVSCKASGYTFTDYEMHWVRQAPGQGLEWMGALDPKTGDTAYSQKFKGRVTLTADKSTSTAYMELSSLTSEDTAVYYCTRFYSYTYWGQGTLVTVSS
T5 sequence (VL, as listed by the source, chain 2 of 2): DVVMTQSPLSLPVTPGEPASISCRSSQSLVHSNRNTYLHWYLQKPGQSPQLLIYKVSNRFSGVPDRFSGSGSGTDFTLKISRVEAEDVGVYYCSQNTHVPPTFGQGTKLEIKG
T1 sequence (heavy, as listed by the source, chain 1 of 2): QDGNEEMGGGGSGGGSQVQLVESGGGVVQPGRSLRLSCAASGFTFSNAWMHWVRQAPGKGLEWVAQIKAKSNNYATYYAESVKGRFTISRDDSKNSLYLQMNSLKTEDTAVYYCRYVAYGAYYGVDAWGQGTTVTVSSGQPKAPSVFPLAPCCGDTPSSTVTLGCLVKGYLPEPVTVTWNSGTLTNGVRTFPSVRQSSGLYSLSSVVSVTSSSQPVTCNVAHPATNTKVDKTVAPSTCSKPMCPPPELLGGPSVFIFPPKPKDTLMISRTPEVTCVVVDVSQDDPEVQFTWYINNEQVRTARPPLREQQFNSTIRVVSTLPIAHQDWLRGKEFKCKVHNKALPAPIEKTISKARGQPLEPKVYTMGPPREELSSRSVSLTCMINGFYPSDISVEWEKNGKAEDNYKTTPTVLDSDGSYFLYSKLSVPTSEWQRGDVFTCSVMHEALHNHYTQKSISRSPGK
T1 sequence (light, as listed by the source, chain 2 of 2): as the sequence (light, as listed by the source, chain 2 of 2) above

B1: CLA0334 Fab fragment (from CLA0334VH-F760mnP17/CLA0334VL-k0C) (Fab, V domains shown)
VH: QEQLEESGGDLVKPEGSLTLTCTASGFSLSVSYWICWVRQAPGKGLEWIACIYAGSTGSTWYANWAKGRFTISKTSSTTVTLQMTSLTAADTATYFCARDSGWNAFDLWGPGTLVTVSS
VL: DVVMTQTPASVSAAVGGTVTIKCQASQSIGSNLAWYQQKSGHPPNLLIYEASGLASGVPLRFSGSGSGTQFTLTISDLECADAATYYCQSYYYSPSVSVHYAFGGGTEVVVKR
notes: Fab prepared from the full antibody with the Pierce Fab Preparation Kit; also called clamping antibody CLA0334
**Q.** Which Kd [1] does the source give for B1 here?
**A.** 0.15 µM

**Q.** What about the Kd [2] of the same binder?
**A.** 0.11 µM

**Q.** Does B1 bind [3]?
**A.** no binding (tested: 1 µM)

**Q.** Does B1 bind [4]?
**A.** no binding (tested: 100 nM)

**Q.** Does B1 bind [5]?
**A.** no binding (tested: 100 nM)

**Q.** Does B1 bind [6]?
**A.** no binding (tested: 100 nM)

**Q.** Does B1 bind [7]?
**A.** no binding (tested: 100 nM)

**Q.** Does B1 bind [8]?
**A.** no binding (tested: 100 nM)

B2: IC17 one arm (antibody, human IgG1, kappa, L234A L235A, N297A)
heavy chain (IC17Hdk-pE22Hh): QVQLQQSGPQLVRPGASVKISCKASGYSFTSYWMHWVNQRPGQGLEWIGMIDPSYSETRLNQKFKDKATLTVDKSSSTAYMQLSSPTSEDSAVYYCALYGNYFDYWGQGTTLTVSSASTKGPSVFPLAPSSKSTSGGTAALGCLVKDYFPEPVTVSWNSGALTSGVHTFPAVLQSSGLYSLSSVVTVPSSSLGTQTYICNVNHKPSNTKVDKKVEPKSCDKTHTCPPCPAPEAAGGPSVFLFPPKPKDTLMISRTPEVTCVVVDVSHEDPEVKFNWYVDGVEVHNAKTKPREEQYASTYRVVSVLTVLHQDWLNGKEYKCKVSNKALPAPIEKTISKAKGQPREPQVYTLPPSRCELTKNQVSLSCAVKGFYPSDIAVEWESNGQPENNYKTTPPVLDSDGSFFLVSKLTVDKSRWQQGNVFSCSVMHEALHNHYTQKSLSLSPDYKDDDDK
light chain (IC17L-k0): DIQMTQSSSSFSVSLGDRVTITCKASEDIYNRLAWYQQKPGNAPRLLISGATSLETGVPSRFSGSGSGKDYTLSITSLQTEDVATYYCQQYWSTPYTFGGGTKLEVKRTVAAPSVFIFPPSDEQLKSGTASVVCLLNNFYPREAKVQWKVDNALQSGNSQESVTEQDSKDSTYSLSSTLTLSKADYEKHKVYACEVTHQGLSSPVTKSFNRGEC
antibody fragment having no variable region (Kn010): not shown
notes: also called negative control anti-KLH antibody IC17 one arm (IC17Hdk-pE22Hh/IC17L-k0//Kn010)
**Q.** Does B2 bind [9]?
**A.** no binding
